Substrate: pcPET (post-consumer)
Assay: Proxy for plastic degradation [Released monomer concentration (HPLC/LC-MS) (TPA+MHET+BHET)]
Conditions: pH 9

B1: unnamed (protein)
chain: MLSFLRSTGRPERRRASLPALLLFTAALVASGLTAAPAAQAADNPYQRGPDPTNASIEAATGPFAVGTQPIVGASGFGGGQIYYPTDTSQTYGAVVIVPGFISVWAQLNWLGPRLASQGFVVIGIETSVITDLPDPRGDQALAALDWATTRSPVASRIDRTRLAAAGWSMGGGGLRRAALQRPSLKAIVGMAPWNGERNWSAVTVPTLFFGGSSDAVASPNDHAKPFYNSITRAEKDYIELRNADHFFPTSANTTMAKYFISWLKRWVDNDTRYRQFLCPGPSTGLFAPVSASMNTCPF
B1 was tested, and the “Proxy for plastic degradation” value (40 °C, 24 h) was 270 µM.

B2: unnamed (protein)
chain: MLSFLRSTGRPERRRASLPALLLFTAALVASGLTAAPAAQAADNPYQRGPDPTNASIEAATGPFAVGTQPIVGASGFGGGQIYYPTDTSQTYGAVVIVPGFISVWAQLNWLGPRLASQGFVVIGIETSVITDLPDPRGDQALAALDWATTRSPVASRIDRTRLAAAGWSMGGGGLRRAALQRPSLKAIVGMAPWNGERNWSAVTVPTLFFGGSSDAVASPNDHAKPFYNSITRAEKDYIELRNADHFFPTSANTTMAKYFISWLKRWVDNDTRYTQFLCPGPSTGLFAPVSASMNTCPF
In the case of B2, the “Proxy for plastic degradation” value (60 °C, 6 h) is reported as 60 µM.

B3: unnamed (protein)
chain: MLSFLRSTGRPERRRASLPALLLFTAALVASGLTAAPAAQAADNPYQRGPDPTNASIEAATGPFAVGTQPIVGASGFGGGQIYYPTDTSQTYGAVVIVPGFISVWAQLNWLGPRLASQGFVVIGIETSVITDLPDPRGDQALAALDWATTRSPVRSRIDRTRLAAAGWSMGGGGLRRAALQRPSLKAIVGMAPWNGERNWSAVTVPTLFFGGSSDAVASPNDHAKPFYNSITRAEKDYIELRNADHFFPTSANTTMAKYFISWLKRWVDNDTRYTQFLCPGPSTGLFAPVSASMNTCPF
For B3, the “Proxy for plastic degradation” value (40 °C, 24 h) was 870 µM.
